The target of assay [1] is full-length human tissue factor with C-terminal RGS-His6 tag, stably expressed on CHO-K1 cells (human) (UniProt P13726). In words: flow cytometry (FACScan) on stable CHO clone #TF48 expressing full-length hTF; first antibody 10 µg/ml, FITC-labeled goat anti-mouse IgG 1:50.
Assay [2] has the same target. As to the kind of experiment: flow cytometry (FACScan) on stable CHO clone #TF34 expressing full-length hTF; first antibody 10 µg/ml, FITC-labeled goat anti-mouse IgG 1:50. On the technique in general: In flow cytometry, cells or beads pass a laser one at a time.

full-length human tissue factor with C-terminal RGS-His6 tag, stably expressed on CHO-K1 cells (human), sequence (P13726 other isoform, or with tags, fused parts or gaps): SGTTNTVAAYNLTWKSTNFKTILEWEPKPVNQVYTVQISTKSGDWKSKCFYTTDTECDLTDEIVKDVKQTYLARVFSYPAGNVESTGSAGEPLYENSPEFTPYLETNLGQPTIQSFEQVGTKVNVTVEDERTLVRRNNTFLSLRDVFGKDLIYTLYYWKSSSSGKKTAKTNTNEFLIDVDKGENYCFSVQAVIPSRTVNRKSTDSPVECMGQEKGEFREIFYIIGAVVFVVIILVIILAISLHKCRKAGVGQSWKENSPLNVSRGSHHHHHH

As to “mouse anti-human TF mAb (Calbiochem, Cat. # 612161) (antibody)”, in assay [1], the % Total in marker M1 (negative gate) worked out at 0.99%; the % Total in marker M2 (positive gate) came out at 98.9%; the Geo Mean (FL1-H), marker All was found to be 168; the Geo Mean (FL1-H), marker M1 came out at 7.54. Moreover, the Geo Mean (FL1-H), marker M2 in assay [1] came out at 174. In assay [2], this substance had a % Total in marker M1 (negative gate) of 0.42%; a % Total in marker M2 (positive gate) of 99.4%; a Geo Mean (FL1-H), marker All of 262; a Geo Mean (FL1-H), marker M1 of 8.16. This substance returned a Geo Mean (FL1-H), marker M2 in assay [2] of 267.
